Experimental findings from patent US20230406948A1 (APEXIGEN, published 2023) are described below.

One test has as its target T1, human CD40 (human, UniProt P25942 21-193).
T1 construct: also called immobilized human CD40
The test is described as follows: method not stated.

Test [1] concerns the target T2, human CD40 on cells (native CD40 on Ramos cells, human B cells, human monocyte-derived dendritic cells); cell … (human, UniProt P25942 21-193). The test is described as follows: cell-based or functional assay.
The target of test [2] is T3, CD40 peptide, residues 125-144 of human CD40 (125PCPVGFFSNVSSAFEKCHPW144) (human).
T3 construct: It is the unmutated control peptide of the mutagenesis set
T3 peptide: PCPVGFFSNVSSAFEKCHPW
The test is described as follows: PEPSCAN-based ELISA on solid-phase peptides. On the procedure: The binding of antibody to each of the synthesized peptides was tested in a PEPSCAN-based ELISA. The peptide arrays were incubated with primary antibody solution (overnight at 4° C.). After washing, the peptide arrays were incubated with a 1/1000 dilution of an antibody peroxidase conjugate (SBA, cat.nr.2010-05) for one hour at 25° C. After washing, the peroxidase substrate 2,2′-azino-di-3-ethylbenzthiazoline sulfonate (ABTS) and 2 microliters/milliliter of 3 percent H₂O₂ were added. After one hour, the color development was measured. The color development was quantified with a charge coupled device (CCD)—camera and an image processing system.

The next test addresses T4, CD40-Fc protein (Homo sapiens (Human), UniProt P25942 21-193).
T4 construct: not shown: Fc
The test is described as follows: ELISA, plates coated with CD40-Fc protein, OD405nm. An excerpt: In order to assess the ability of the APX005 […] mutant to bind to CD40, APX005 S267E heavy chain and light chain plasmids were purified from transformed bacteria and transfected into 293-6E cell. Four days after transfection, antibody-containing culture supernatants were collected and tested for binding to CD40 using ELISA (ELISA plates coated with CD40-Fc protein).

Test [3] addresses T2, human CD40 on cells (native CD40 on …). The test is described as follows: FACS on live Ramos cells, goat anti-human IgG (H+L) PE. As to the method:
In another experiment, the ability of the CD40 antibodies to bind to native CD40 protein was determined by FACS analysis with live Ramos cells. Ramos cells were harvested and blocked with 1.5 ml blocking buffer (0.1% BSA/PBS) for 30 minutes. Antibodies at various concentrations were added to cells and incubated for 1 hour. After washing, 50 ul Goat-anti-human IgG (H+L) PE antibody at 1:1000 dilution in blocking solution was added and incubated for 30 minutes. Cells were then washed with PBS and were re-suspended with […] and analyzed by FACS. The antibodies tested were the 19-21 rabbit anti-CD40 agonist antibody, SGN-40 developed by Seattle Genetics and CP870893 from Pfizer.

Test [4] shares this target. The test is described as follows: FACS on Ramos cells, 4 h at 37 C, Alexa 488 goat anti-human IgG. On the procedure:
(§1) In order to assess the target mediated-internalization of APX005 for evaluating its impact on ADCC activity, Ramos cells were incubated with APX005 for 4 h at 37° C., a temperature permissive for internalization, or at 4° C. for 30 minutes, a temperature at which internalization is minimized. Cells were washed with staining buffer, followed by incubation with Alexa 488 labeled goat anti-human IgG for an additional 30 minutes at 4° C. FACS analysis was performed to examine the level of APX005 on the cell surface.

The target is the same in test [5]. The test is described as follows: FACS on Ramos cells, 30 min at 4 C, Alexa 488 goat anti-human IgG. On the procedure:
as §1

Test [6] addresses T5, fusion protein of rabbit Fc and DR5 (UniProt O14763 56-182, limits assumed).
T5 construct: Neither the species nor the order of the parts is stated; not shown: rabbit Fc
The test is described as follows: direct ELISA, 1 ug/ml rabbit Fc-DR5 fusion coated, goat anti-human IgG-HRP. On the procedure:
(§2) Binding selectivity of APX005 was assessed by direct ELISA to a panel of TNFR family proteins. A total of 1 μg/ml of fusion protein of rabbit Fc and CD40, RANK, TweakR, OX40, DR5 and 4-1 BB were coated on ELISA plates. Bound APX005 was detected using goat anti-human HRP-conjugated IgG.

Test [7] has as its target T6, fusion protein of rabbit Fc and OX40 (UniProt P43489 29-216).
T6 construct: Neither the species nor the order of the parts is stated; not shown: rabbit Fc
T6 sequence (looked up): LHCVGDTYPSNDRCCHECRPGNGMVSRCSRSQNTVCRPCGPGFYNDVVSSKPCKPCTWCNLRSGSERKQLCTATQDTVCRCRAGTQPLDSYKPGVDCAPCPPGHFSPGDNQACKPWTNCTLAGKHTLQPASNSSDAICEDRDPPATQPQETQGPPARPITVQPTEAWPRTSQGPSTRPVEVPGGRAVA
The test is described as follows: direct ELISA, 1 ug/ml rabbit Fc-OX40 fusion coated, goat anti-human IgG-HRP. On the procedure: as §2

For test [8], the target named is T7, fusion protein of rabbit Fc and RANK (UniProt Q9Y6Q6 30-212, limits assumed).
T7 construct: Neither the species nor the order of the parts is stated; not shown: rabbit Fc
T7 sequence (looked up): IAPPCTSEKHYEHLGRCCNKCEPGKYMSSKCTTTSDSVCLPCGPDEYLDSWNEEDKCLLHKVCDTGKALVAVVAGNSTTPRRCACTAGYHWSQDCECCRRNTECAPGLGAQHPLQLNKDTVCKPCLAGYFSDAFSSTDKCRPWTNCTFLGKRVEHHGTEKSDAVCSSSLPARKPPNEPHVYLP
The test is described as follows: direct ELISA, 1 ug/ml rabbit Fc-RANK fusion coated, goat anti-human IgG-HRP. On the procedure:
as §2

Another test addresses T8, mouse CD40 (mouse, UniProt P27512 20-193, limits assumed).
T8 construct: Coated on ELISA plates at 1 ug/ml
The test is described as follows: direct ELISA according to paragraph 284 (1 ug/ml mouse CD40 coated, goat anti-human IgG-HRP); y axis of the sheet reads MFI. As to the method:
Cross-reactivity was assessed by direct ELISA. A total of 1 μg/ml of human CD40, monkey CD40 or mouse CD40 was coated on ELISA plates followed by incubation with 1 μg/ml of APX005 or control IgG1. Antibodies bound to CD40 were detected using goat anti-human IgG conjugated with HRP. APX005 clearly crossreacts with monkey CD40 but not mouse CD40. (FIG. 11A)

T2 sequence (P25942 21-193): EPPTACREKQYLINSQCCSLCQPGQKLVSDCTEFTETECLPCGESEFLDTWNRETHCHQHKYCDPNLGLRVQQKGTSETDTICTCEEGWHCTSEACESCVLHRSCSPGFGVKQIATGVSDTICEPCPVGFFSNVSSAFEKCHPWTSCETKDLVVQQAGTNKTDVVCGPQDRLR
T5 sequence (O14763 56-182 limits assumed): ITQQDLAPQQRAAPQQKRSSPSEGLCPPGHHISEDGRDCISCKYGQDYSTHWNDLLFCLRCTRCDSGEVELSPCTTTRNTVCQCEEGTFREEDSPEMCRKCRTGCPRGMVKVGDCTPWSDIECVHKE
T4 sequence (P25942 21-193 limits assumed): as the sequence (P25942 21-193) above
T1 sequence (P25942 21-193 limits assumed): as the sequence (P25942 21-193) above
T8 sequence (P27512 20-193 limits assumed): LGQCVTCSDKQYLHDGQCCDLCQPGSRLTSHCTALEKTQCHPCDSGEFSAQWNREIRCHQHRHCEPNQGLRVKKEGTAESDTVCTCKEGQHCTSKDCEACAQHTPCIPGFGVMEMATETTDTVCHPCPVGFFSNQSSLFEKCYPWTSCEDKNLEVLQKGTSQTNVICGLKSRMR

B1: APX005, humanized version of the R-8 rabbit anti-CD40 antibody (antibody, IgG1, V domains shown)
VH: QVQLVESGGGVVQPGRSLRLSCAASGFSFSSTYVCWVRQAPGKGLEWIACIYTGDGTNYSASWAKGRFTISKDSSKNTVYLQMNSLRAEDTAVYFCARPDITYGFAINFWGPGTLVTVSS
VL: DIQMTQSPSSLSASVGDRVTIKCQASQSISSRLAWYQQKPGKPPKLLIYRASTLASGVPSRFSGSGSGTDFTLTISSLQPEDVATYYCQCTGYGISWPIGGGTKVEIK
notes: also called humanized R-8; APX005 wild type
B1: the Kd with human CD40 worked out at 0.96 nM. In addition, the “EC50 (ng/ml), CD40 agonist activity: up-regulation of CD86 on human B cells” value in [1] was found to be 24.4 ng/mL. The binding result in [2] was “binds”; in test [6], “no binding”; in test [7], “no binding”; in [8], “no binding”; with mouse CD40, “no binding”. The 50% effective concentration (EC50) is 0.0563 µg/mL with CD40-Fc protein and 0.023 µg/mL in test [3]. Besides, the “EC50 (read off the curve)” value in [4] and in test [5] was approximately 0.05 µg/mL throughout.
